# Laboratory results reported in patent US20240076389A1 (NATIONAL RESEARCH COUNCIL OF CANADA, published 2024).
# Residue numbers refer to the chain shown, from its start.
# T1: AXL fragment # 3 (AXL amino acids 26-138, IgL1)
# T1 chain: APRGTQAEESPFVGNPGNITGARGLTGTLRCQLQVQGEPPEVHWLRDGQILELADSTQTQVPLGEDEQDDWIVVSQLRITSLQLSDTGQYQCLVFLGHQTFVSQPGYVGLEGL
# T2: AXL fragment # 2 (AXL amino acids 321-429, FN III-2)
# T2 chain: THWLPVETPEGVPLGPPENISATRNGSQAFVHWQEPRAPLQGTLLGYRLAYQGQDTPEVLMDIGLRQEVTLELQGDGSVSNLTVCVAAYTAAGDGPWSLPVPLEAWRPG
# T3: AXL fragment # 1 (AXL amino acids 135-226, IgL2)
# T3 chain: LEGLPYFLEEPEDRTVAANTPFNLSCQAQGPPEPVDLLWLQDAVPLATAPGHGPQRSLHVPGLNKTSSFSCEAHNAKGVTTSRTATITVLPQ
# T4: AXL fragment # 7 (AXL amino acids 135-335, IgL2+FN III-1)
# T4 chain: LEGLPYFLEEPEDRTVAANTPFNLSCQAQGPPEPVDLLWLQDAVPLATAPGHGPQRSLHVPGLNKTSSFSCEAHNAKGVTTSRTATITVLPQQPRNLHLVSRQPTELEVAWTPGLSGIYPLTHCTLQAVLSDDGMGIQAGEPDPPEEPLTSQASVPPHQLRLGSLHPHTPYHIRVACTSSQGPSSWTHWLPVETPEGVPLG
# T5: rhMER-ECD (human, UniProt Q12866 21-505)
# T5 construct: extracellular domain
# T5 sequence (looked up): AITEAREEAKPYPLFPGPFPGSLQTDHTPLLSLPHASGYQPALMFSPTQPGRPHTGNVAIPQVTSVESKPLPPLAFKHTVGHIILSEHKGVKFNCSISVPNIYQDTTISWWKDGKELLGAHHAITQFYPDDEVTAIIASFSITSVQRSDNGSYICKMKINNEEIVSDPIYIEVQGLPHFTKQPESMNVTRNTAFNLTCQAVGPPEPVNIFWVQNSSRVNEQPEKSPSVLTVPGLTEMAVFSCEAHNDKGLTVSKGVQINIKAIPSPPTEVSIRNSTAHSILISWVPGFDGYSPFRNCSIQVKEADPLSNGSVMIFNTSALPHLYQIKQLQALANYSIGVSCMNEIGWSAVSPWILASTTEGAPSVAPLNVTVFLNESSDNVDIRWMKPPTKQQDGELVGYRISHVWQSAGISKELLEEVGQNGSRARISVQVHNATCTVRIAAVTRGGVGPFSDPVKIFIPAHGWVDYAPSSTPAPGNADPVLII
# T6: rhTyro-3 (human, UniProt Q06418 41-429)
# T6 construct: extracellular domain
# T6 sequence (looked up): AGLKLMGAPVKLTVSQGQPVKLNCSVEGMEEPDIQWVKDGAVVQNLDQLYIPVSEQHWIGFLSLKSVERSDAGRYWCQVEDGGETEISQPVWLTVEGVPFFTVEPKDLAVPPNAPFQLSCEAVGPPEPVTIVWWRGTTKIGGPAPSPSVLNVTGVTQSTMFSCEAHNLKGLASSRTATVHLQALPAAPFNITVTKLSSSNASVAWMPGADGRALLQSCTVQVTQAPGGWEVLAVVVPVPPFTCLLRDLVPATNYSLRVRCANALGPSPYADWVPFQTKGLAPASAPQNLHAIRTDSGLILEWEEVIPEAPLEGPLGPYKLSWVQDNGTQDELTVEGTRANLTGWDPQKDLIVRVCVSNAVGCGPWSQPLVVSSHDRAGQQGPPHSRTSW
# T7: huTyro3-ECD displayed on yeast (human, UniProt Q06418 41-429)
# T7 construct: extracellular domain
# T7 sequence (looked up): T6 sequence (looked up)
# B1: F111-3C8 (antibody, V domains shown)
# VH: QVQLQQPGAELGKPGTSVKLSCKASGYTFTSYWMHWVKRVPGQGLEWIGNINPNSTSADYNEKFKRKATLTVDKSSSTAYMQLSTLTSEDSAVYYCTRPLMGPYWYFDVWGTGTTVTVSS
# VL: QIVLTQSPAIMSASPGEKVTISCSASSSVSYMYWYQQKPGSSPKPWIYRTSNLASGVPARFSGSGSGTSYSLTISSMEAEDAATYYCQQYHNYPPTFGGGTKLEIK
# notes: also called F111-3C8-2
# B2: F111-5E9 (antibody, V domains shown)
# VH: QIQLVQSGPELKKPGETVKISCKASGYTFTKYGMNWVKQAPGKGLKWMGWINTYTGEPTYADDFKGRFAFSLETSASTAYLQINNLTTEDMVTYFCAKGGYYSNPIYPMDYWGQGTSVTVSS
# VL: DIQMTQTTSSLSASLGDRVTISCRASQDINNYLNWYQQKPDGTVKLLIYYISRLHSGVPSRFSGSGSGTDYSLTISNLELEDVATYFCQQGNTLPFTFGSGTKLEIK
# notes: also called F111-5E9-2; mAb 5E9
# B3: F107-8D12 (antibody, V domains shown)
# VH: QVQLQQPGAELVKPGASVQLSCKASGYTFISFWINWVKQRPGQGLEWMGNIFPGSSSTNYNEKFKSKATLTVDKSSSTAYMQLSSLTSEDSAVYFCARDYYGGSPDYWGQGTTLTVSS
# VL: DIVMSQSPSSLAVSAGERVTMSCKSSQSLLNTRTRKNYLAWYQQKPGQSPKLLIYWASTRESGVPDRFTGSGSGTDFTLTISSVQAEDLAVYYCKQSYNLWTFGGGTKLEIK
# notes: also called F107-8D12-2; mAb 8D12
# B4: F107-7H5 (antibody, V domains shown)
# VH: QVQLQQPGAELVKPGASVKLSCKASGYTFTSYWINWVKQRPGQGLEWIGNIYPDSSSTNYNEKFKSKATLTVDKSSTTAYIQFSSLTSEDSAVYYCTRDTYGGSPDYWGQGTTLTVSS
# VL: B3 VL with R18K, T32S, N37I, E61Q
# notes: also called F107-7H5-2; mAb 7H5
# B5: F107-10G1 (antibody, V domains shown)
# VH: EVNLVESGGGVVKPGASLKLSCEASGFTFSNYGMSWVRQTSDKRLEWVASISGGGGRTYYLDNVKGRFIISRENAKNTLYLQMSSLKSEDTALFYCARGARASYFAMDYWGQGSSVTVSS
# VL: VIVMTQSHKFMSTSVGDRVSITCKASQDVTTAVAWYQQKPGQSPKLLIYWASTRHTGVPDRFTGSGSGTDYSLTISNVQTEDLAFYYCQQHFTTPLTFGAGTKLELK
# notes: also called F107-10G1-3
# B6: hFC-F107-10G1 (antibody, human IgG1, kappa, V domains shown)
# VH: B5 VH
# VL: VIVMTQSHKFMSTSVGDRVSITCKASQDVTTAVAWYQQKPGQSPKLLIYWASTRHTGVPDRFTGSGSGTDYSLTISNVQTEDLAFYYCQQHFTTPLTFGAGTKLELKR
# notes: Chimeric mAb, human IgG1 / human kappa constant regions; also called mAb F107-10G1
# B7: NRC-sdAb001-Fc (VHH-human IgG1 Fc fusion) (Fc fusion)
# chain: QVKLEESGGGLVQAGGSLRLSCTASASISSFDIMGWYRQAPGKQRELVAAITTLDIANYRDSVKGRFTISRDNAKNTVYLQMDSLKPEDTARYHCAAFQSDQNYWGQGTQVTVSS
# notes: VHH fused N-terminally to human IgG1 Fc, made in HEK293 cells; also called NRC-sdAb0001-Fc; NRC-sdAb001-hIgG1; not shown: human IgG1 Fc
# Biological target: T1, AXL fragment # 3 (AXL amino acids …)
# Experiment: yeast surface display of hAXL fragments, whole yeast cell ELISA, signal normalised to anti-MYC
# Source text: (§1) Epitope mapping. […] The YSD vector (pPNL6) was from The Pacific Northwest National Laboratory, USA.
row,binding result,Binder
1,no binding,B1
2,no binding,B2

# Biological target: T2, AXL fragment # 2 (AXL amino acids …)
# Experiment: as above
# Source text: as §1
row,binding result,Binder
1,no binding,B3
2,no binding,B4
3,no binding,B1
4,no binding,B5
5,no binding,B2

# Biological target: T3, AXL fragment # 1 (AXL amino acids …)
# Experiment: yeast surface display of hAXL fragments (Aga2-HA-(hAXL)-MYC), whole yeast cell ELISA, signal normalised to anti-MYC
# Source text: as §1
row,binding result,Binder
1,binds,B1
2,binds,B2

# Biological target: T4, AXL fragment # 7 (AXL amino acids …)
# Experiment: as above
# Source text: as §1
row,binding result,Binder
1,binds,B1
2,binds,B2

# Biological target: T5, rhMER-ECD
# Experiment: ELISA on coated antigen
# Description: (§2) To evaluate the cross-reactivity of the mAb to other members of the TAM receptor tyrosine kinase subfamily, binding of the mAb to rhAXL-ECD, rhMER-ECD, rhTyro-3 and BSA (negative control) was measured by ELISA. 96-w half-area plates (Costar) were coated with 25 μl of rhAXL-ECD, rhMER-ECD, rhTyro-3 or BSA at 5 μg/ml in PBS and incubated overnight at 4° C. Microplates were washed 3 times with PBS, blocked with PBS-BSA 1%, and 25 μl of a 10 μg/ml diluted in PBS-BSA 1% were added and incubated at 37° C., 5% CO₂ for 2 hours. Plates were washed 4 times with PBS-TWEEN™ 20 0.05% and incubated for one hour at 37° C., 5% CO₂ with 25 μl of secondary antibody alkaline phosphatase conjugated F(ab)′2 goat anti-mouse IgG (H+L) (Jackson Immunoresearch) diluted 1/5000 in blocking buffer. After 4 washes with PBS-Tween 20 0.05%, 25 μl of a 1 mg/ml pN PP substrate solution was added and further incubated for one hour at 37° C. OD405 nm measurements were done using a microplate reader (Spectramax 340 PC, Molecular Devices).
row,binding result,Binder
1,no binding (tested: 10 µg/ml),B3
2,no binding (tested: 10 µg/ml),B4
3,no binding (tested: 10 µg/ml),B1
4,no binding (tested: 10 µg/ml),B5
5,no binding (tested: 10 µg/ml),B2

# Biological target: T6, rhTyro-3
# Experiment: ELISA on coated antigen
# Description: as §2
row,binding result,Binder
1,no binding (tested: 10 µg/ml),B3
2,no binding (tested: 10 µg/ml),B4
3,no binding (tested: 10 µg/ml),B1
4,no binding (tested: 10 µg/ml),B5
5,no binding (tested: 10 µg/ml),B2

# Biological target: T8, BSA (UniProt P02769 25-607)
# T8 construct: also called BSA (negative control)
# Experiment: ELISA on coated antigen
# Description: as §2
# T8 sequence (P02769 25-607 limits assumed): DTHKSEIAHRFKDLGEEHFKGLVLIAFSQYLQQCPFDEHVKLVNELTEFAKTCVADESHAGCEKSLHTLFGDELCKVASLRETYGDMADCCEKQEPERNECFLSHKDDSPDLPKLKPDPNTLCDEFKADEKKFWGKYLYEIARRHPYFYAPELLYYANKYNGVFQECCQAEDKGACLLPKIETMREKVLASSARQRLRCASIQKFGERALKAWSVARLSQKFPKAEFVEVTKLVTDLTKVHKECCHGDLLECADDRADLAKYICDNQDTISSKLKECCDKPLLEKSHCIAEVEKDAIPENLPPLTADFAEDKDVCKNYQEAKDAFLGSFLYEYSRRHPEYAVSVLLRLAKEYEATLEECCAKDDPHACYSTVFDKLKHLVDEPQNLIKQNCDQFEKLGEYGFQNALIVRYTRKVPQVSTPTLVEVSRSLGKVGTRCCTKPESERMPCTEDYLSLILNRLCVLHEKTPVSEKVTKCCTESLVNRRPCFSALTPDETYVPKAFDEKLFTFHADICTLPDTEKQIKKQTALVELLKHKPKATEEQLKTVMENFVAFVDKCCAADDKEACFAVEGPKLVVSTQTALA
row,binding result,Binder
1,no binding (tested: 10 µg/ml),B3
2,no binding (tested: 10 µg/ml),B4
3,no binding (tested: 10 µg/ml),B1
4,no binding (tested: 10 µg/ml),B5
5,no binding (tested: 10 µg/ml),B2

# Biological target: T7, huTyro3-ECD displayed on yeast
# Experiment: yeast surface display ELISA, non-denatured yeast, goat anti-human F(ab')2-HRP
row,yeast ELISA signal normalized to myc expression level,Binder
1,-0.023,B6
2,0.017,B7

# Biological target: T9, cyAXL-ECD displayed on yeast
# T9 construct: extracellular domain; 'cy' read as cynomolgus
# Experiment: as above
row,yeast ELISA signal normalized to myc expression level,Binder
1,1.14,B6
2,0.824,B7
